Results from US20230065562A1, “DUAL CONTROLS FOR THERAPEUTIC CELL ACTIVATION OR ELIMINATION” (Bellicum Pharmaceuticals, Inc., priority 2015, published 2023).
Positions count from the first letter of the chain named. Names may count otherwise. “Also recorded” adds a separate entry of the source.

B1: D327G: modified iCasp9, D327G (protein)
chain: VDGFGDVGALESLRGNADLAYILSMEPCGHCLIINNVNFCRESGLRTRTGSNIDCEKLRRRFSSLHFMVEVKGDLTAKKMVLALLELARQDHGALDCCVVVILSHGCQASHLQFPGAVYGTDGCPVSVEKIVNIFNGTSCPSLGGKPKLFFIQACGGEQKDHGFEVASTSPEDESPGSNPEPDATPFQEGLRTFGQLDAISSLPTPSDIFVSYSTFPGFVSWRDPKSGSWYVETLDDIFEQWAHSEDLQSLLLRVANAVSVKGIYKQMPGCFNFLRKKLFFKTSASRA
B2: Q328K: modified iCasp9, Q328K (protein)
chain: B1 chain with G195D, Q196K
B3: D327K: modified iCasp9, D327K (protein)
chain: B1 chain with G195K
B4: F326K: modified iCasp9, F326K (protein)
chain: B1 chain with F194K, G195D
B5: T317A: modified iCasp9, T317A (protein)
chain: B1 chain with T185A, G195D
B6: D330G: modified iCasp9, D330G (protein)
chain: B1 chain with G195D, D198G
B7: D330E: modified iCasp9, D330E (protein)
chain: B1 chain with G195D, D198E
B8: Q328R: modified iCasp9, Q328R (protein)
chain: B1 chain with G195D, Q196R
B9: D330N: modified iCasp9, D330N (protein)
chain: B1 chain with G195D, D198N
B10: A331K: modified iCasp9, A331K (protein)
chain: B1 chain with G195D, A199K
B11: A316G: modified iCasp9, A316G (protein)
chain: B1 chain with A184G, G195D
B12: L329G: modified iCasp9, L329G (protein)
chain: B1 chain with G195D, L197G
B13: L329K: modified iCasp9, L329K (protein)
chain: B1 chain with G195D, L197K
B14: D330V: modified iCasp9, D330V (protein)
chain: B1 chain with G195D, D198V
B15: D327R: modified iCasp9, D327R (protein)
chain: B1 chain with G195R
B16: T317C: modified iCasp9, T317C (protein)
chain: B1 chain with T185C, G195D
B17: G402Y: modified iCasp9, G402Y (protein, UniProt P55211 1-416, looked up, variant G402Y)
chain: MDEADRRLLRRCRLRLVEELQVDQLWDALLSRELFRPHMIEDIQRAGSGSRRDQARQLIIDLETRGSQALPLFISCLEDTGQDMLASFLRTNRQAAKLSKPTLENLTPVVLRPEIRKPEVLRPETPRPVDIGSGGFGDVGALESLRGNADLAYILSMEPCGHCLIINNVNFCRESGLRTRTGSNIDCEKLRRRFSSLHFMVEVKGDLTAKKMVLALLELAQQDHGALDCCVVVILSHGCQASHLQFPGAVYGTDGCPVSVEKIVNIFNGTSCPSLGGKPKLFFIQACGGEQKDHGFEVASTSPEDESPGSNPEPDATPFQEGLRTFDQLDAISSLPTPSDIFVSYSTFPGFVSWRDPKSGSWYVETLDDIFEQWAHSEDLQSLLLRVANAVSVKGIYKQMPYCFNFLRKKLFFKTS
modifications: FKBP12-F36V fusion (iCasp9), CARD deleted
B18: C403P: modified iCasp9, C403P (protein, UniProt P55211 1-416, looked up, variant C403P)
chain: B17 chain with Y402G, C403P
modifications: FKBP12-F36V fusion (iCasp9), CARD deleted
B19: ^316ATPF^319AVPI: modified iCasp9, ATPF replaced by SMAC/Diablo AVPI (protein, UniProt P55211 1-416, looked up, variant T317V F319I)
chain: B17 chain with T317V, F319I, Y402G
modifications: FKBP12-F36V fusion (iCasp9), CARD deleted
B20: D315A: modified iCasp9, D315A (auto-proteolysis site) (protein, UniProt P55211 1-416, looked up, variant D315A)
chain: B17 chain with D315A, Y402G
modifications: FKBP12-F36V fusion (iCasp9), CARD deleted
B21: F319A: modified iCasp9, F319A (protein, UniProt P55211 1-416, looked up, variant F319A)
chain: B17 chain with F319A, Y402G
modifications: FKBP12-F36V fusion (iCasp9), CARD deleted

These molecules were tested on HEK293T/16 cells (assay: Secreted alkaline phosphatase (SEAP)-based surrogate killing assay of iCasp9 mutants). Details: SEAP assay without AP1903.
Format: cell-based, human
Experimental: Early passage HEK293T/16 cells (ATCC, Manassas, Va.) were maintained in IMDM, GlutaMAX™ (Life Technologies, Carlsbad, Calif.) supplemented with 10% FBS, 100 U/mL penicillin, and 100 […] until transfection in a humidified, 37° C., 5% CO2/95% air atmosphere. Cells in logarithmic-phase growth were transiently transfected with 800 ng to 2 μg of expression plasmid encoding iCasp9 mutants and 500 ng of an expression plasmid encoding SRα promoter driven SEAP per million cells in 15-mL conical tubes. […] GeneJammer® Transfection Reagent at a ratio of 3 μl per ug of plasmid DNA was used to transiently transfect HEK293T/16 cells in the absence of antibiotics. 100 μl or 2 mL of the transfection mixture was added to each well in 96-well or 6-well plate, respectively.
Briefly, after 65° C. heat denaturation for 45 minutes to reduce background caused by endogenous (and serum-derived) alkaline phosphatases that are sensitive to heat, 5 μl of supernatants was added to 95 μl of PBS and added to 100 μl of substrate buffer, containing 1 μl of 100 mM 4-methylumbelliferyl phosphate (4-MUP; Sigma, St. Louis, Mo.) re-suspended in 2 M diethanolamine. Hydrolysis of 4-MUP by SEAP produces a fluorescent […] with excitation/emission (355/460 nm), which can be easily measured. Assays were performed in black opaque 96-well plates to minimize fluorescence leakage between wells. […] of the mixture was seeded onto each well of a 96-well plate. […] For the assay, 4-methylumbelliferyl phosphate substrate was hydrolyzed by SEAP to 4-methylumbelliferon, a metabolite that can be excited with 364 nm and detected with an emission filter of 448 nm. Since SEAP is used as a marker for cell viability, reduced SEAP reading corresponds with increased iCaspase-9 activities.

Molecule | Basal Activity (relative to wild type/unmodified Caspase-9)
B1 | did not lower basal activity; also recorded: Increased
B2 | did not lower basal activity; also recorded: Increased
B3 | did not lower basal activity; also recorded: Increased
B4 | did not lower basal activity; also recorded: Increased
B5 | lower basal activity; also recorded: reduce basal activity; also recorded: Decreased
B6 | less basal activity than wild type Caspase-9; also recorded: Decreased
B7 | less basal activity than wild type Caspase-9; also recorded: Decreased
B8 | did not lower basal activity; also recorded: Increased
B9 | less basal activity than wild type Caspase-9; also recorded: Decreased
B10 | did not lower basal activity; also recorded: Increased
B11 | lower basal activity; also recorded: Decreased
B12 | did not lower basal activity; also recorded: Increased
B13 | did not lower basal activity; also recorded: Increased
B14 | less basal activity than wild type Caspase-9; also recorded: Decreased
B15 | did not lower basal activity; also recorded: Increased
B16 | no effect
B17 | catalytically inactive and dead
B18 | catalytically inactive and dead
B19 | no effect
B20 | Decreased
B21 | no effect

Same assay, conditions: SEAP assay without AP1903; listed as D315

Molecule | Basal Activity (relative to wild type/unmodified Caspase-9)
B20 | reduced basal activity
